Source: publication doi:10.64898/2025.12.24.696337, “A Broadly Conserved Protective Epitope on the Lyme Disease Vaccine Antigen, OspA” (bioRxiv, 2025)
Positions count from the first letter of the chain named.

B1: 857-2, recombinant human monoclonal IgG1 (antibody, V domains shown)
VH: EVQLVQSGEEVKKPGESLKISCKGSGYKFSSYWIGWVRQMPGKGLEWMGIIFPGDSDKRYSPSFQGQVTISADKSISTVYLQWSSLKASDTAMYYCARHITTHTYRGFFDFWGQGTLVTVSS
VL: AIQLTQSPSSLSASVGDRVTITCRASQDISSALAWYQQKPGKAPKLLIYDVSSLESGVPSRFSGSGSGTDFTLTISSLQPEDFATYYCQQFNGYPHRLTFGGGTKVEIK
notes: rest human IgG1 constant region; IgG1; VH germline HV5-51, VL germline KV1-13; also called mAb 857-2; Class I Bin 1 mAb; source: Expi293, transiently transfected with VH and VL plasmids, purified (Protein A)
B2: 221-5, recombinant human monoclonal IgG1 (antibody, V domains shown)
VH: EVQLVQSGAEVKKPGESLKISCKGSGYSFTSYWIGWVRQMPGKGLEWMGIIYPGDSDTRYSPSFQGQVTISADKSISTAYLQWSSLKASDTAMYYCARHLGIDYFFGMDVWGQGTTVTVSS
VL: EIVLTQSPATLSLSPGERATLSCRASQSVSSYLAWYQQKPGQAPRLLIYDASTRDTGIPARFSGSGSGTDFTLTISSLEPEDFAVYYCQHHSNWYTFGQGTKLEIK
notes: rest human IgG1 constant region; IgG1; VH unmutated from germline HV5-51, VL derived from KV3-11; also called Class I Bin 1 mAb; source: Expi293, transiently transfected with VH and VL plasmids, purified (Protein A)
B3: 221-11, recombinant human monoclonal IgG1 (antibody, V domains shown)
VH: EVQLVQSGAEVKKPGESLKISCQSSGYRFTIYWIGWVRQMPGKGLEWMGIIWPGDSDTRYSPSFQGQVTISADKSISTAYLQWSSLKASDTAMYYCVRGIGRYSNWFLDYWGQGTLVTVSS
VL: AIQLTQSPSSLSASVGDRVTITCRASQGFSSALAWYQQKPGKAPKLLIYDASSLESGVPSRFSGSGSGTDFTLTISSLQPEDFATYYCQQFNSYPLTFGGGTKVEIK
notes: rest human IgG1 constant region; IgG1; VH germline HV5-51, VL germline KV1-13; also called Class II Bin 1 mAb; source: Expi293, transiently transfected with VH and VL plasmids, purified (Protein A)
B4: 227-1, recombinant human monoclonal IgG1 (antibody, V domains shown)
VH: EVQLVQSGAEVKMPGESLKISCEVSGYSFTSYWIGWVRQMPGKGLEWMGIIYPGDSDTRYSPSFQGQVTISADKSISTAYLQWSSLKASDTAMYYCTRSISRSGPGFSLSWFFDYWGQGTLVTVSS
VL: B3 VL with F29I, S31N, S56R, S67F, T85I, S93G, Y94F, L96N, G100Q, K103R
notes: rest human IgG1 constant region; IgG1; VH germline HV5-51, VL germline KV1-13; also called Class III Bin 1 mAb; source: Expi293, transiently transfected with VH and VL plasmids, purified (Protein A)

Experiments:
[1] = molecular target: T1, Native OspA serotype 3 on B. garinii PBr cells (Borreliella garinii PBr, UniProt B8F1J0, strain); assay: flow cytometry on cells; native Bbsl strains (primary isolates, ST1-7) probed with mAb; conditions: one partner purified
T1 construct: OspA serotype 3 of B. garinii PBr, native on the bacterial surface; also called native OspA ST3; source: endogenous, B. garinii PBr cells

[2] = molecular target: T2, Recombinant OspAST1 (residues 18-273) from B. burgdorferi B31 (Borreliella burgdorferi B31, UniProt P0CL66); assay: BLI; Octet RED96e; mAb captured on AHC sensors, three-fold dilution series of OspA (21.58 nM to 0.089 nM); PBS, 0.1% BSA, 0.01% Tween20; global 1:1 model; conditions: both partners purified
T2 construct: Outer surface protein A (OspA) serotype 1, B. burgdorferi B31, residues 18 to 273; Used for the crystal structures; also called OspA (18-273); outer surface protein A serotype 1; not shown: His10, N-terminal, cleaved; SUMO, N-terminal, cleaved

[3] = molecular target: T3, OspA serotype 4 (B. bavariensis PBi allele) on B. burgdorferi HB19-R1 reporter strain (Borreliella bavariensis PBi allele, in …, UniProt Q6LBF1, strain); assay: flow cytometry on cells; live B. burgdorferi HB19-R1 reporter strains expressing OspA ST1-7 probed with 10 µg/ml mAb, then Alexa 647-labeled goat anti-human IgG; conditions: one partner purified
T3 construct: OspA serotype 4, allele of B. bavariensis PBi; also called OspAST4; OspA ST4; source: expressed from a reporter plasmid in B. burgdorferi HB19-R1, on live cells

[4] = molecular target: T4, OspA serotype 3 (B. garinii PBr allele) on B. burgdorferi HB19-R1 reporter strain (Borreliella garinii PBr allele, in B. …, UniProt B8F1J0, strain); assay: as above; conditions: one partner purified
T4 construct: OspA serotype 3, allele of B. garinii PBr; also called OspAST3; OspA ST3; source: expressed from a reporter plasmid in B. burgdorferi HB19-R1, on live cells

[5] = molecular target: T5, OspA serotype 2 (B. afzelii PKo allele) on B. burgdorferi HB19-R1 reporter strain (Borreliella afzelii PKo allele, in B. …, UniProt P0A3N7); assay: as above; conditions: one partner purified
T5 construct: OspA serotype 2, allele of B. afzelii PKo; also called OspAST2; OspA ST2; source: expressed from a reporter plasmid in B. burgdorferi HB19-R1, on live cells

[6] = molecular target: T6, Recombinant OspA serotype 1 (provided by Moderna) (Borreliella burgdorferi, strain not …, UniProt P0CL66); assay: microsphere immunoassay (MIA); recombinant OspA ST1-7 coupled to Magplex-C microspheres; serial dilutions of mAb in PBS, 2% BSA, pH 7.4, 1 h at room temperature; PE goat anti-human IgG Fc; conditions: both partners purified
T6 construct: OspA serotype 1; also called recombinant OspA ST1; ST 1; source: E. coli, purified; provided by Dr. Meredith Finn (Moderna)
T6 sequence (P0CL66 17-273): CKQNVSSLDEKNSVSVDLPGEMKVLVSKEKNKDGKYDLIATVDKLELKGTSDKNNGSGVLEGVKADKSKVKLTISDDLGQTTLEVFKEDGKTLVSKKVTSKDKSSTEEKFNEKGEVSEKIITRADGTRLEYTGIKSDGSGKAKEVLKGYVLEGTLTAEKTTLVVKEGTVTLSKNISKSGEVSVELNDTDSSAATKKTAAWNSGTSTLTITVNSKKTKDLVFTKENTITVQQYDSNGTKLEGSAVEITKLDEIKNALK

T5 sequence (P0A3N7 17-273): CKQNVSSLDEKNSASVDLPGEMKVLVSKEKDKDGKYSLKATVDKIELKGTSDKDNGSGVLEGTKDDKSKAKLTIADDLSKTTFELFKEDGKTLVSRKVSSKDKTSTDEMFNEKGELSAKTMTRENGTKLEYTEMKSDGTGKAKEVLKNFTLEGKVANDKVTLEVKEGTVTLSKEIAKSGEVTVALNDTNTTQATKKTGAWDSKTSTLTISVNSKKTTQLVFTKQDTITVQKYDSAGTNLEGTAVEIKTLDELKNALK

| Binder | binding result [1] | Kd [2] | MFI [3] | MFI [4] | MFI [5] | binding result [6] | binding result [4] |
| --- | --- | --- | --- | --- | --- | --- | --- |
| B1 | binds | 0.3 nM | > 4000 | > 4000 | > 4000 |  |  |
| B2 |  | 0.52 nM | > 4000 | > 4000 | > 4000 | binds |  |
| B3 |  | 0.35 nM |  |  |  |  | binds |
| B4 |  | 1.7 nM |  |  |  |  |  |
